Measured values reported in a protein production outcome set (Wang et al. 2014).

Assay: label from the status in PepcDB records

MNNRGAVTDMISQLPEPLILQILGSLPTKVAITTSVLSKQWQSHWKMMPKLEFDSFLRRLDLENVTKCLLSHKAPVLQTFSLKVRLDRRNNAVDIGCLIGIAMTRNVRKLVLEVYFHRGTFTFPRSLYHCETLETLELILNVVMDVPPSVYLKSLKTLYLLAVDFKDDESVINLLSGCPNLQDLVMRRNSSSNVKTFTIAVPSLQRLAIHNGSGTPQHCGYTINTPSLKYLKLEGSKAFESFMVENVSELIEVNITDVSEIIDEKLRVFLTSVTRLSLALSPSVFTFPTGIIFNQLVYLEICTNKTSWWKLLPLMLHSSPKLQVLKLIDDTDGMNYVEASGEWNQPKNVPECLHHLEKFIWEGYKWKREEIEVAKYILKNTNRLKRAIFSLKGISSEDRLVVVEDLKSVVMATTNSCQFQFI
protein production: failed

MSQETPYIFDARTADFDQSVIENSFHKPVLVDFWAEWCAPCKALMPMLQQIAESYQGELLLAKVNCDIEQDIVARFGIRSLPTVVLFKDGQPVDGFAGAQPESAVRAMLEPHVQMPPPPAADPLEQAEALFAEGRIGDAEALLKVLLGEDNSNAKALILYARCLAERGELGEAQTVLDAVKSDEHKAALAGAKAQITFLKQAADLPDAAELKARLAKDPQDDEALYQLAIQQLARQQYEAALEALLKLFMRNRSYNEGIAHKTLLQVFDLLGNDHPLVTAYRRKLFAALY
protein production: failed

MVKVELVYIANSKNCLHYKMDLKQGATVEEALIESNIYSTCPETRELPVGVYGKRVSVDQVLKEGDRIEIYRPLILDPKEKRRKLAQFKK
protein production: failed

MKAADEPAYLTVGTDVSAKYRGAFCEAKIKTVKRLVKVKVLLKQDNTTQLVQDDQVKGPLRVGAIVETRTSDGSFQEAIISKLTDASWYTVVFDDGDERTLRRTSLCLKGERHFAESETLDQLPLTNPEHFGTPVIAKKTNRGRRSSLPVTEDEKEEESSEEEDEDKRRLNDELLGKVVSVVSATERTEWYPALVISPSCNDDITVKKDQCLVRSFIDSKFYSIARKDIKEVDILNLPESELSTKPGLQKASIFLKTRVVPDNWKMDISEILESSSSDDEDGPAEENDEEKEKEAKKTEEEVPEEELDPEERDNFLQQLYKFMEDRGTPINKPPVLGYKDLNLFKLFRLVYHQGGCDNIDSGAVWKQIYMDLGIPILNSAASYNVKTAYRKYLYGFEEYCRSANIQFRTVHHHEPKVKEEKKDLEESMEEALKLDQEMPLTEVKSEPEENIDSNSESEREEIELKSPRGRRRIARDVNSIKKEIEEEKTEDKLKDNDTENKDVDDDYETAEKKENELLLGRKNTPKQKEKKIKKQEDSDKDSDEEEEKSQEREETESKCDSEGEEDEEDMEPCLTGTKVKVKYGRGKTQKIYEASIKSTEIDDGEVLYLVHYYGWNVRYDEWVKADRIIWPLDKGGPKKKQKKKAKNKEDSEVDEKRDEERQKSKRGRPPLKSTLSSNMPYGLSKTANSEGKSDSCSSDSETEDALEKNLINEELSLKDELEKNENLNDDKLDEENPKISAHILKENDRTQMQPLETLKLEVGENEQIVQIFGNKMEKTEEVKKEAEKSPKGKGRRSKTKDLSLEIIKISSFGQNEAGSEPHIEAHSLELSSLDNKNFSSATEDEIDQCVKEKKLKRKILGQSSPEKKIRIENGMEMTNTVSQERTSDCIGSEGMKNLNFEQHFERENEGMPSLIAESNQCIQQLTSERFDSPAEETVNIPLKEDEDAMPLIGPETLVCHEVDLDDLDEKDKTSIEDVAVESSESNSLVSIPPALPPVVQHNFSVASPLTLSQDESRSVKSESDITIEVDSIAEESQEGLCERESANGFETNVASGTCSIIVQERESREKGQKRPSDGNSGLMAKKQKRTPKRTSAAAKNEKNGTGQSSDSEDLPVLDNSSKCTPVKHLNVSKPQKLARSPARISPHIKDGEKDKHREKHPNSSPRTYKWSFQLNELDNMNSTERISFLQEKLQEIRKYYMSLKSEVATIDRRRKRLKKKDREVSHAGASMSSASSDTGMSPSSSSPPQNVLAVECR
protein production: not failed

YTISEVVAFTGLTAHTLRWYERIGLMPHIDRSHTGQRRYSNRDLDWLAFVGKLRLTGMPVADMVRYAEMVREGDGTYTQRYEILESTRRDVLARIAELQDTLAVLDHKISFYADAGRALTSERSR
protein production: failed

MAVTLRLTNSLAFSSHPLTSSVLFRGSKSIGTITKIASTIRTVKMAAFAGSDSETTSSTSRVIDSHLHIWASPQEAETYPYFPGQEPTLTGDVNFLLKNMEEARVDGALIVQPINHKFDHSLVTRSRPF
protein production: failed

MKINMHILGLLVVVGLFSLQSCDDESYDIEGSNQNYVYINVNRWTSTEYPQNTFVYEVLRTPIGSSLESGPEIVKVGVRSTKVASKDITVTLDIDNCASIGEFSSFPDGVKVTLDKKELVIPAGSMLSSDSVTIEIEDGKWSEFVNTSYLLPLKVTSVSNAALSETHSSAYLAVSTSFTNCVPGATSVEGTLISDRSAWTATNNGVDVGTTLFDGNTRTYPSQDASSTVIVNLNGVYQNITGIRLQYYSRNYSLSSAAVYTSETGGEDYEYQGNVTFSRATPQYIRFYGAVSARYVKLELLPYSSGYGIVLSEFDMYQNE
protein production: failed

MSLIPKFRAWDTYEKEMLENVTPLFDDSNSMIAIITDFQIKGSPGTSEIEIGSYDTTFNWDEFPYVIMQSTGLKDKNGVEIFEGDILVYDAPKKYAHRRSMHEIAYADGRFFWEFLDLVFCQSNILYRDGYLVIGNIHENPELLEGNEGHHHHHH
protein production: not failed

MTCHNAAGALEPTGSAAKTLPDGLHALMTAEELAFFARFGRLREVSAGQSLFERGAVGTQMYIVVSGQIDLDFGEDLMLKHLGPGEFFGELGLLIGDHARSAGASASTDSRLIELAHDDFQRLVDQDPSMVAHFLRRSIVRVVNNEQLLIRQLRRRNHDLEAALDNLYVTSHQLNHTEELSRTDELTGLHNRRGLALHLQECRRAGHVPGVGLILIDCDRFKRINDEFGHLAGDRVLQNVAHALRSVIAEGDLACRLGGDEFCVLVAQGTSELVHHIGECIVRAVEARLCNGQGEQGCSVSVGSCMIDADAAWNDWYTLADSALYEAKRQGGNVLCMQETLALDQPPASGHR
protein production: failed

MRADRSMLGPSLHRDQIMAMNRVQFQAGLSLPAFLKRYGNAQQCEQALEISRWPQGFVCPHCAATAHSRFQRHGTTYWQCTACYRQTSLRSGTVMDNSKLPLRTWLLGMYLLGQSKTNLSALELMRHLGVSYPTAWPMKHKLMQAMTQREANRKLGGIVQLDDAYLGGERNGGKAGRGSENKRLFVIAVETTEDGRPLRAVMDPVPGFTKAALSEWIGQRLHPGADVYSDGLGAFRALEAEHAHTVIEGSGRSRCEAENARWVNVVLSNLKRSLDGAYHAFKYAQRYLAETMWRFNRRFDLTRLVPSLLAAAAASKPWSERALRDVTMFTAESAC
protein production: failed

MKPILALLSLLALPVMAAEPTLYGRYENIKVLEIGQTFKAKMDTGALTASLSAKDIELFQRDGDDWVRFRLATKGADDKVYEHKVSRISKIKGRAEGDDEDDEGINPAKRPVVDLELCLGNKKRTVEVNLVDRSHFNFPLLIGAKALREFGAAINPARRYTADEPDC
protein production: not failed

MKVNETGVEELNPYPDRPGERDCQFYLRTGLCGYGSSCRYNHPTHLPQDVAYYKEELPERIGQPDCEYFLKTGACKYGPTCKYHHPKDRNGAQPVMFNVIGLPMRLGEKPCPYYLRTGTCRFGVACKFHHPQPDNGHSTAYGMSSFPAADLRYASGLTMMSTYGTLPRPQVPQSYVPILVSPSQGFLPPQGWAPYMAASNSMYNVKNQPYYSGSSASMAMAVALNRGLSESSDQPECRFFMNTGTCKYGDDCKYSHPGVRISQPPPSLINPFVLPARPGQPACGNFRSYGFCKFGPNCKFDHPMLPYPGLTMATSLPTPFASPVTTHQRISPTPNRSDSKSLSNGKPDVKKESSETEKPDNGEVQDLSEDASSP
protein production: failed

MNTSGIGGYFRQGLFGRDLLASVVVFLVALPLCMGIAIASGMPPAAGLITGIVGGLVVGFLAGSPLQVSGPAAGLAVLVFELVREHGAVALGPVILVAGAIQLIAGLCRAGVWFRMTSPAVVAGMLSGIGILIVASQAHVLMDAAPKARGLENFAALPGVLWQAISEGTGRNALFVGLATIGIILAWDKLRPQRLRFLPGALIAVVVVTATVQLQGLNVNKVDVPTNLFSAISIPSISDIFGVFNHTLLVSAVTFAFIASAETLLSAAAVDRMHQGARTQYDRELAAQGVGNMLCGFLGALPMTGVIVRSAANVQAGAATRASTILHGSWLLVFAMLLPWLLRMTPVACLAGILVYTGVKMIKIGQVKELATYGRGTAAIYLATTFAIVATDLLTGVLIGFGLSLFRLALHSSRLKVEVREHADKKDEMHLTLQGSATFLKVPAMARTLESVPPNTALHLDVAKLHHVDHACIELLRDWSRNAASRGCELVVDWKELDRRVEGQPTVDGVLVEQRVEQAKAA
protein production: failed

KDAAWLNGWTSYNKVAREIVLAEMANTTILEEGKIVAELRRLLPDKAGLFIGNSMPIRDVDTYFSQIDKKIKMLANRGANGIDGVVSSALGASVVFQPMFLLIGDLSFYHDMNGLLMAKKYKMNLTIVIVNNDGGGIFSFLPQANEPKYFESLFGTSTELDFRFAAAFYDADYHEAKSVDELEEAIDKASYHKGLDIIEVKTNRHENKANHQALWVKIADALKALD
protein production: failed

MTCRPALSDSHPPEPGTPSSPSFGVCGDRPLLRERGQHEVFCGLAGIIWLHRKIQDAFFLIIGSRTCAHLMQSAAGVMIFAEPRFATAVLEEQDLAGLADAQDEIDRVVARLLERRPDIRLLFLVGSCPSEVIKIDLQRAALRLSKVHGARTRVVSYSGSGLETTFTQGEDACLAALVPDLPSAAADEAPDLLVVGTLPDVVEDQFGRLFAEMGIARTAFLPPRRSTALPAIGPKTRFLLAQPFLGDTARCLEARGARRLAAPFPFGVEGTTGWLAAAAQAFGVDDLTFRRVTAPGRERAARALERQRATLEGKRVFFFPESQLEIPLARFLVRELGMEAIEIGTPYLHRAHLAEELALLPATALLSEGQDVDRQLDRCRAARPDLVVCGLGLANPLEAEGITTKWSIELVFSPIHGYEQAGDLAELFARPLLRRALLKV
protein production: failed

MKTRCGCKKIASYTVVKLILNRLDVAMNSTIRRWFASAGAMRRVFSTFAPYLGAGIKVTHIADDFSSATVEMRQHWYNTNYVGTHFGGSLYSMVDPMYMLLLMRSLGNDYIVWDKSASIDFIRPGKGVVKAHFELTDARLDEIREATADGDKYLPEWYIDIVDEAGTVVSRVHKVLYVRRKPAE
protein production: failed

MTGSCLCQGIRYEISGHGLGDIIECHCQRCRKANGTAYATNTPVHVDDFKIVQGEHLLKKYQSTPTTQRCFCSECGSPIMSIKTDTPEYYRLRIGTLDTKIEQKPSMHIFAAHKAEWDTITDDLPQYAERP
protein production: failed

MTVTSPRIATILLLIVCFIWGVEFVPIDLAIEVMPTNTFNAIRFAVATLSMLPLLWFVQKKNKGNSKPIDYVLLIRSGMLLGFFLFIGFYTQTEGMRFTTVTNAGFITGLCVPLVPVLGFLIFRNVVPKSVWIGVVTATAGLYMLTIGDKLVFNKGDILVLICAFGFAGHIIMTDRFVDNLPIIPLSIVQIFAVSIYSTIAIFIGPDPVFYYQDAEPVSWYQQLFTPLMIFAILVSGILGTAYAFWAQSVSQTLLKPHKVALIFAAEPVFACIAAWVFLDEVLGEKGMIGAGLILAGMLVSELGDRKKQPELRALDQTAALK
protein production: failed
